The record followed here is US20240409599A1 (Genentech, published 2024).

What is called kon is a measure of how fast the partners come together. Read a high kon as fast association. Broadly, the Kd is the free concentration of one partner at which half of the binding sites on the other are occupied at equilibrium, for simple one-to-one binding. A lower Kd goes with tighter binding. Usually koff stands for a measure of how fast the partners let go of each other. A high value points to fast dissociation.

Holding throughout (assay): SPR, Biacore 8K, 37 C, biotinylated target on SA chip, single-cycle kinetics
(Surface plasmon resonance follows binding to a sensor surface in real time, without labels.)

Assay [1] concerns the target T1, Mouse IL-18BP (isoform D) (mouse, UniProt Q9Z0M9 29-193, biotinylated (site not stated)).
T1 sequence: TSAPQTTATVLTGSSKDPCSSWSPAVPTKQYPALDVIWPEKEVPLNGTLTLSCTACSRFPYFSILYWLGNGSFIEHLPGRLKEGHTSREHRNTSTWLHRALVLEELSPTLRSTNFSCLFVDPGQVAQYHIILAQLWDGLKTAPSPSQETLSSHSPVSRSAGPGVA
Here is the method: (§1) SPR experiments were performed using a Biacore 8K (Cytiva) at a temperature of 37° C. Biotinylated human or mouse IL-18Rα and IL-18BP were immobilized onto Biacore streptavidin sensor chip (Series S Sensor Chip SA, Cytiva) to yield an Rmax ≤50 RU. Measurements were made with five, three-fold dilutions into HBS-P+ buffer (10 mM HEPES pH 7.4, 150 mM NaCl, 0.005% surfactant P20). Interactions were evaluated using the single-cycle kinetics method and analyzed with the Biacore 8K evaluation software and fit to a 1:1 binding model.
(§2) A subset of variants were selected for analyses of binding kinetics to the L-18 receptor, IL-IM, and the decoy receptor, L-18BP, by surface plasmon resonance (SPR) (Table 8). With two exceptions, all kinetics constants are within an order of magnitude of wild-type IL-18.

Assay [2] addresses T2, Mouse IL-18Rα extracellular domain (mouse, UniProt Q61098 20-326, biotinylated (site not stated)).
T2 sequence: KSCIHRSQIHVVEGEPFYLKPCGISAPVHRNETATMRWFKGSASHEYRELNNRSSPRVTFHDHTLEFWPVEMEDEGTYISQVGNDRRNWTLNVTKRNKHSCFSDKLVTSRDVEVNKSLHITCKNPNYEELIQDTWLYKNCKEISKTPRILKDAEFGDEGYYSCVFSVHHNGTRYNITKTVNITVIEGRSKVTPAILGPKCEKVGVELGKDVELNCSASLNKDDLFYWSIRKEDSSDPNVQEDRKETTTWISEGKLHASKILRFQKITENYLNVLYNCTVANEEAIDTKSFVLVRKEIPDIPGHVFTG
As to the method: as §1, §2

In assay [3] the target is T3, Human IL-18Rα extracellular domain (human, UniProt Q13478 22-329, biotinylated (site not stated)).
T3 construct: also called IL-18 receptor
T3 sequence: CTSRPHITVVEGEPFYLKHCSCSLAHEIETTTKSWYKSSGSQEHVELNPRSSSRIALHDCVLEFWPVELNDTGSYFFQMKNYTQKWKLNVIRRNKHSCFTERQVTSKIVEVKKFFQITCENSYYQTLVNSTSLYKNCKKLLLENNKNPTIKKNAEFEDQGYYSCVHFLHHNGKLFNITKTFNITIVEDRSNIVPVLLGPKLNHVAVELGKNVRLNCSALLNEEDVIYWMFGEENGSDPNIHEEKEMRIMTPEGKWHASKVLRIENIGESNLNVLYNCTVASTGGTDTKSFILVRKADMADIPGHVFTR
Here is the method:
as §1, §2

The target of assay [4] is T4, Human IL-18BP (isoform A) (human, UniProt O95998 31-194, biotinylated (site not stated)).
T4 construct: also called decoy receptor
T4 sequence: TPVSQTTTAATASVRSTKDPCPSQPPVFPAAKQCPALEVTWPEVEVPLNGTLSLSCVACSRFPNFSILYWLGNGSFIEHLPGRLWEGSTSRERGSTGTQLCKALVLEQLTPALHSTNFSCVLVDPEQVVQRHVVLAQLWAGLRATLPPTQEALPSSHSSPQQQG
Here is the method:
as §1, §2

B1: Mouse wild-type mature IL-18 (ligand)
chain: NFGRLHCTTAVIRNINDQVLFVDKRQPVFEDMTDIDQSASEPQTRLIIYMYKDSEVRGLAVTLSVKDSKMSTLSCKNKIISFEEMDPPENIDDIQSDLIFFQKRVPGHNKMEFESSLYEGHFLACQKEDDAFKLILKKKDENGDKSVMFTLTNLHQS
notes: also called Mouse WT; mouse mature IL-18
In turn, B1 registered a kon in assay [1] of 650000 M⁻¹ s⁻¹. For the same molecule, in assay [2], binding was characterised by a dissociation constant (Kd) of 1.27 nM, the koff turned out to be 0.0097 s⁻¹ and the kon was 7.6e+06 M⁻¹ s⁻¹.

B2: Mouse IL-18 A159C/V182C (ligand)
chain: NFGRLHSTTAVIRNINDQVLFVDKRQPVFEDMTDIDQSASEPQTRLIIYMYKDSEVRGLAVTLSVKDSKMSTLSSKNKIISFEEMDPPENIDDIQSDLIFFQKRVPGHNKMEFESSLYEGHFLCSQKEDDAFKLILKKKDENGDKSCMFTLTNLHQS
In assay [1], B2 displayed a Kd of 0.014 nM, a dissociation rate constant (koff) of 3.2e-05 s⁻¹ and a kon of 2.23e+06 M⁻¹ s⁻¹. In assay [2], this molecule gave a dissociation constant Kd of 1.11 nM, an off-rate (koff) of 0.0077 s⁻¹ and a kon of 7e+06 M⁻¹ s⁻¹.

B3: Human IL-18 A162C/I185C (ligand)
chain: YFGKLESKLSVIRNLNDQVLFIDQGNRPLFEDMTDSDSRDNAPRTIFIISMYKDSQPRGMAVTISVKSEKISTLSSENKIISFKEMNPPDNIKDTKSDIIFFQRSVPGHDNKMQFESSSYEGYFLCSEKERDLFKLILKKEDELGDRSCMFTVQNED
notes: Made in mammalian cells
In assay [3], B3 came in with a Kd of 68.1 nM, an off-rate (koff) of 0.212 s⁻¹ and an association rate constant (kon) of 3.11e+06 M⁻¹ s⁻¹. In assay [4], this molecule yielded a Kd of 0.0065 nM, an off-rate constant (koff) of 1.89e-05 s⁻¹ and a kon of 2.91e+06 M⁻¹ s⁻¹.

B4: Human IL-18 S46C/V189C (ligand)
chain: YFGKLESKLCVIRNLNDQVLFIDQGNRPLFEDMTDSDSRDNAPRTIFIISMYKDSQPRGMAVTISVKSEKISTLSSENKIISFKEMNPPDNIKDTKSDIIFFQRSVPGHDNKMQFESSSYEGYFLASEKERDLFKLILKKEDELGDRSIMFTCQNED
notes: Made in mammalian cells
In assay [3], B4 showed an equilibrium dissociation constant (Kd) of 147 nM, a koff of 0.054 s⁻¹ and a kon of 360000 M⁻¹ s⁻¹. In assay [4], binding was put at a Kd of 0.018 nM, the koff worked out at 4.3e-05 s⁻¹ and the kon was 2.3e+06 M⁻¹ s⁻¹.

B5: Human IL-18 hCS (ligand)
chain: YFGKLESKLSVIRNLNDQVLFIDQGNRPLFEDMTDSDSRDNAPRTIFIISMYKDSQPRGMAVTISVKSEKISTLSSENKIISFKEMNPPDNIKDTKSDIIFFQRSVPGHDNKMQFESSSYEGYFLASEKERDLFKLILKKEDELGDRSIMFTVQNED
In assay [3], B5 showed a Kd of 1.7 nM, a koff of 5.6e-05 s⁻¹ and a kon of 32000 M⁻¹ s⁻¹. Besides, in assay [4], the Kd was 0.035 nM, the koff is 4.9e-05 s⁻¹ and the kon came to 1.4e+06 M⁻¹ s⁻¹.

B6: Human IL-18 S43C/S86C (ligand)
chain: YFGKLECKLSVIRNLNDQVLFIDQGNRPLFEDMTDSDSRDNAPRTIFIICMYKDSQPRGMAVTISVKSEKISTLSSENKIISFKEMNPPDNIKDTKSDIIFFQRSVPGHDNKMQFESSSYEGYFLASEKERDLFKLILKKEDELGDRSIMFTVQNED
notes: Made in mammalian cells
Turning to B6, in assay [3], binding was put at a Kd of 54.5 nM, the koff came to 0.0241 s⁻¹ and the association rate constant (kon) amounted to 440000 M⁻¹ s⁻¹. In addition, in assay [4], the Kd was 0.009 nM, the koff came to 3.2e-05 s⁻¹ and the association rate constant (kon) was 3.4e+06 M⁻¹ s⁻¹.

B7: Human IL-18 S46C/I85C (ligand)
chain: YFGKLESKLCVIRNLNDQVLFIDQGNRPLFEDMTDSDSRDNAPRTIFICSMYKDSQPRGMAVTISVKSEKISTLSSENKIISFKEMNPPDNIKDTKSDIIFFQRSVPGHDNKMQFESSSYEGYFLASEKERDLFKLILKKEDELGDRSIMFTVQNED
notes: Made in mammalian cells
In assay [4], B7 showed a Kd of 0.035 nM, a koff of 0.00012 s⁻¹ and a kon of 3.3e+06 M⁻¹ s⁻¹.

B8: Human IL-18 L174C (ligand)
chain: YFGKLESKLSVIRNLNDQVLFIDQGNRPLFEDMTDSDSRDNAPRTIFIISMYKDSQPRGMAVTISVKSEKISTLSCENKIISFKEMNPPDNIKDTKSDIIFFQRSVPGHDNKMQFESSSYEGYFLASEKERDLFKLICKKEDELGDRSIMFTVQNED
notes: Made in mammalian cells
In assay [3], B8 gave a Kd of 32.8 nM, a koff of 0.011 s⁻¹ and a kon of 350000 M⁻¹ s⁻¹. In assay [4], this molecule displayed an equilibrium dissociation constant (Kd) of 0.007 nM, an off-rate constant (koff) of 2.1e-05 s⁻¹ and an on-rate (kon) of 2.93e+06 M⁻¹ s⁻¹.

B9: Human IL-18 I107C/N123C (ligand)
chain: YFGKLESKLSVIRNLNDQVLFIDQGNRPLFEDMTDSDSRDNAPRTIFIISMYKDSQPRGMAVTISVKSEKCSTLSSENKIISFKEMCPPDNIKDTKSDIIFFQRSVPGHDNKMQFESSSYEGYFLASEKERDLFKLILKKEDELGDRSIMFTVQNED
notes: Made in mammalian cells
In assay [3], B9 returned an equilibrium dissociation constant (Kd) of 14.7 nM, a koff of 0.031 s⁻¹ and an on-rate (kon) of 2.1e+06 M⁻¹ s⁻¹. In assay [4], this molecule displayed a Kd of 0.007 nM, a koff of 2.1e-05 s⁻¹ and an on-rate (kon) of 2.9e+06 M⁻¹ s⁻¹.

B10: Human IL-18 F57C/T81C (ligand)
chain: YFGKLESKLSVIRNLNDQVLCIDQGNRPLFEDMTDSDSRDNAPRCIFIISMYKDSQPRGMAVTISVKSEKISTLSSENKIISFKEMNPPDNIKDTKSDIIFFQRSVPGHDNKMQFESSSYEGYFLASEKERDLFKLILKKEDELGDRSIMFTVQNED
notes: Made in mammalian cells
Take B10: in assay [4], the affinity, expressed as Kd, was 0.007 nM; the koff came to 2.2e-05 s⁻¹; the on-rate (kon) is 3.4e+06 M⁻¹ s⁻¹.

B11: Human IL-18 L45C/E192C (ligand)
chain: YFGKLESKCSVIRNLNDQVLFIDQGNRPLFEDMTDSDSRDNAPRTIFIISMYKDSQPRGMAVTISVKSEKISTLSSENKIISFKEMNPPDNIKDTKSDIIFFQRSVPGHDNKMQFESSSYEGYFLASEKERDLFKLILKKEDELGDRSIMFTVQNCD
notes: Made in mammalian cells
In assay [3], B11 registered a Kd of 58.7 nM, an off-rate constant (koff) of 0.028 s⁻¹ and a kon of 470000 M⁻¹ s⁻¹. In assay [4], this molecule came in with a Kd of 0.015 nM, an off-rate (koff) of 3.1e-05 s⁻¹ and an on-rate (kon) of 2.1e+06 M⁻¹ s⁻¹.

B12: Human IL-18 S101C/T109C (ligand)
chain: YFGKLESKLSVIRNLNDQVLFIDQGNRPLFEDMTDSDSRDNAPRTIFIISMYKDSQPRGMAVTICVKSEKISCLSSENKIISFKEMNPPDNIKDTKSDIIFFQRSVPGHDNKMQFESSSYEGYFLASEKERDLFKLILKKEDELGDRSIMFTVQNED
notes: Made in mammalian cells
In the case of B12, in assay [3], the Kd was 147 nM, the koff amounted to 0.042 s⁻¹ and the kon was found to be 280000 M⁻¹ s⁻¹. For the same molecule, in assay [4], the dissociation constant (Kd) was 0.011 nM, the koff came to 2.4e-05 s⁻¹ and the kon was determined as 2.3e+06 M⁻¹ s⁻¹.

B13: Human IL-18 Y37C/S91C (ligand)
chain: CFGKLESKLSVIRNLNDQVLFIDQGNRPLFEDMTDSDSRDNAPRTIFIISMYKDCQPRGMAVTISVKSEKISTLSSENKIISFKEMNPPDNIKDTKSDIIFFQRSVPGHDNKMQFESSSYEGYFLASEKERDLFKLILKKEDELGDRSIMFTVQNED
notes: Made in mammalian cells
In assay [4], B13 had a dissociation constant Kd of 0.07 nM, an off-rate (koff) of 0.00018 s⁻¹ and a kon of 2.6e+06 M⁻¹ s⁻¹.

B14: Human IL-18 T99C/P124C (ligand)
chain: YFGKLESKLSVIRNLNDQVLFIDQGNRPLFEDMTDSDSRDNAPRTIFIISMYKDSQPRGMAVCISVKSEKISTLSSENKIISFKEMNCPDNIKDTKSDIIFFQRSVPGHDNKMQFESSSYEGYFLASEKERDLFKLILKKEDELGDRSIMFTVQNED
notes: Made in mammalian cells
In assay [3], B14 had a Kd of 64.4 nM, a koff of 0.032 s⁻¹ and an association rate constant (kon) of 500000 M⁻¹ s⁻¹. In assay [4], the Kd worked out at 0.008 nM, the koff amounted to 2.5e-05 s⁻¹ and the kon was 3e+06 M⁻¹ s⁻¹.
